Tested on: hsSB (high-solubility Sleeping Beauty transposase, recombinant) (artificial)
Experiment: cell_activity
Settings: HeLa, 3 weeks

Substance | activity (% Venus-positive cells) (hsSB added to culture medium, up to 3.31% in iPSCs (FIG. 9)) | activity (% Venus-positive cells) (protein electroporation, 20 ug hsSB, maximum efficiency, also active in CHO and mESC)
Venus transposon minicircle (SB LE/RE ends) | < 12 | 
Venus transposon plasmid (SB LE/RE ends) |  | 42

From patent US20220145332
